Like-named read-outs stand apart in the source and are kept apart here.
Legend:
[1] = Summary of active and inactive peptides / overall biological activities
human tumor cells = format: cell-based; details: controls at equimolar or 5 to 10× greater concentrations
Procedure: The anti-tumor activities of MA were assessed in several in vitro and in vivo systems using published methods.^166 In vitro studies were with a wide variety of human tumor cell lines as well as short-term cultures of cells from biopsy samples obtained from tumors. The assays included effects of MA on colony formation, cell number and viability (trypan blue), and apoptosis. Four measures of microscopy were used. In vivo studies included the effects of MA on tumors induced in immunodeficient mice by xenotransplanted various human neoplastic cells, spontaneous neoplasms of immuno-competent mice and rats, and a few standard tumors in immuno-competent mice. Representative examples are presented.
Cells (5×10^5/ml) were seeded in modified Eagle's medium supplemented with 10% FCS, 10% conditioned medium form PHA stimulated human lymphocytes, 2 mM glutamine in 0.8% V/V methylcellulose with or without various treatments in a final volume of 1.0 ml. Then 0.1 ml aliquots were seeded in 96 well flat bottom microtest plates and incubated at 37° C. in 5% CO2 in air for 7 days. Aggregates containing 50 cells or more were scored as colonies.
5×10^5 cells were seeded in triplicate on 24 gelatin coated wells in conditions as described for Panel A and treated with the indicated test materials. After 3 days the cells were dislodged from their monolayers by gentle pipetting with cell dissociation buffer (Life Technologies), counted after trypan blue staining and aliquots examined for Annexin V staining by indirect IFA […].
Studies of the anti-tumor cell effects of MA were extended to other carcinomas, melanoma, some hematopoietic tumors, and carcinomas of the colon, prostate, breast, lung, brain, pancreas, and kidney-using cell lines from these tumors. […] Many more types of tumor cells were studied utilizing other assays (see below).

[2] = tested on: human carcinoma and sarcoma cells (PC3, KS Y-1); test: Xenotransplanted human tumors in immunodeficient mice; format: in vivo; details: controls at equivalent and higher molar concentrations
Procedure: In the first set of experiments, MA was tested against tumors formed by xenotransplantation of various human carcinoma and sarcoma cells in immunodeficient mice. […] […] Three different synthetic forms of MA were used: full length (MAS3) and the previously described MAS1 and MAS2 (Panel C).

HIV-1 = details: controls at similar, equimolar or higher concentrations
Procedure: Virus (MOI of 0.001) was added to 10^6 cells in RPMI-1640 with 10% FCS. One hour later the various polypeptides were added once. The cells cultured for 3 days with 5 ug PHA and 20 i.m. of II-2/ml at 37°, after which virus was estimated by determining p24 (HIV-1) or p27 (SIV) (Organon-Teknika).
The effect of native and synthetic MA on HIV-1 infection in vitro was evaluated using PHA and II-2 stimulated primary peripheral blood cells (PBMC), CD4+ T-cells enriched fractions from PBMC, and CD14+ macrophage enriched fractions. Infection was with HIV-1 IIIB (PBMC and CD4+ T-cells), HIV-1 Ba-L (macrophages), and two primary HIV-1 isolates not passaged in any cell line (PBMC).

HIV-1 gene expression = test: HIV-1 transgenic mice, pups feeding from treated mothers; format: in vivo; details: mouse, in vivo
From the text: The transgenic mice contain 5.1 kb of the HIV-1 proviral genome, lacking gag and pol genes and 2.3 kb of vector.^172 The newly developed transgenic rat contains the same HIV-1 sequences and vector.
Twenty-four hours after birth the mothers were either inoculated subcutaneously daily for 10 days or received an implanted osmotic pump delivering 30-150 pmoles of either native or synthetic MA or pMA. Various control polypeptides were used at equimolar or vast molar excess. The newborn pups were then allowed to feed from the foster mother breast milk over the entire period. Since the animals are at risk from needle inoculation, breastfeeding was the chosen route for MA administration.
In these experiments total RNA was extracted from samples of skin RNA206 10 days after birth of MA treated and untreated mice. One ug of RNA was reverse transcribed into cDNA using random hexamer primer and […] reverse transcriptase (Life Technologies, Inc.) in a final vol. Of 30 ul. Three ul of each reaction was used for PCR amplification of the HIV-1 gene sequences (env, tat, nef, and rev) as described […], and glyceraldehyde 3-phosphate dehydrogenase (GAPDH) was amplified from each sample for normalization. After 25 cycles, 10% of the products were resolved by electrophoresis on 2% agarose gels, transferred to nitrocellulose membranes by Southern blotting, and hybridized to fluorescein isthiocyanate-labeled oligonucleotide probes complementary to internal sequences of the amplicons […]. Bound probes were detected by chemiluminescence (Amersham) and relative mRNA levels determined by densitrometry after normalization with GAPDH mRNA levels.

[3] = tested on: hematopoietic progenitors (CFU-GEMM, BFU-e, CFU-GM, T-CFC); test: Hematopoietic colony formation assays; format: cell-based, human
From the text: Hematopoietic colony formation assays with bone marrow or cord blood of normal human volunteers and bone marrow of monkeys, rats, and mice were utilized. The assays are conventional measurements of the number of progenitors for erythrocytes, granulocytes, macrophages, platelets, and T-cells. The culture conditions included growth factors that would give near optimum growth for the particular lineage. These factors included II-3, PHA-lymphocyte conditioned medium, erythropoietin (EPO), II-6, and GM-CSF. The number of colonies developing in methylcellulose reflects the number of progenitor cells, and the percent increase is a measure of the effect of different polypeptides to increase colony number above the maximum obtained with the indicated known growth factors.
The latter is a less conventional assay, and details on the methods involved are described elsewhere.^178

[4] = Lethal dose taxol in Sprague-Dawley rats; format: in vivo; details: even at high doses
Procedure: Sprague-Dawley rats were given taxol in large lethal doses, 4.5 mg in one I.P. inoculation. […] Bone marrow suppression can also be a side effect of the clinical use of taxol.^179 As in the radiation experiments, either MA, pMA, MAS1, or various polypeptide controls were given subcutaneously only in two doses 24 and 48 hrs before taxol treatment or were given 3×/week for 4 weeks. […]

hCG receptor = molecular target: T1, hCG receptor (Homo sapiens, UniProt P22888); details: cited from earlier work
T1 construct: host or cells: unspecified cells

HIV = details: higher doses increased viral production; cited from earlier work

T1 sequence (P22888 27-699): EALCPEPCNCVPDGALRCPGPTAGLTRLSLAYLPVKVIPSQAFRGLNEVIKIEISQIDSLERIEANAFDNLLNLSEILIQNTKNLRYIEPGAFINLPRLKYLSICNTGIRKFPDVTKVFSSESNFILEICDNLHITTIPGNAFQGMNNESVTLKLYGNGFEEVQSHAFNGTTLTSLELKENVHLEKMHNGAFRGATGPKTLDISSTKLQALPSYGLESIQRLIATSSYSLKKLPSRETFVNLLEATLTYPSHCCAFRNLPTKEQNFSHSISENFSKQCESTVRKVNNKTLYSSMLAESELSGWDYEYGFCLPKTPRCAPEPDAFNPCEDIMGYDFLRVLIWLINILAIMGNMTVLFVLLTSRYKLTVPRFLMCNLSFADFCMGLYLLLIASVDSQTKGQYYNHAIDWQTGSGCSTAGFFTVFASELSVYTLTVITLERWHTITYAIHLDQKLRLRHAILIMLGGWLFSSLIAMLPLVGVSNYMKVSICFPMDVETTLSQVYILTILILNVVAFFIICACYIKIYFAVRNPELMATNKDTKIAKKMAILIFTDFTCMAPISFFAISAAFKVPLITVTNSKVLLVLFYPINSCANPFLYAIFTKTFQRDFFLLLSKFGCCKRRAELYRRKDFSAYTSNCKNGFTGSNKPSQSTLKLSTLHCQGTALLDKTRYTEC

B1: β-hCG: β-chain of human chorionic gonadotropin, AA 1-145 (SEQ ID NO: 1) (protein, listed as Homo sapiens)
chain: SKEPLRPRCRPINATLAVEKEGCPVCITVNTTICAGYCPTMTRVLQGVLPALPQVVCNYRDVRFESIRLPGCPRGVNPVVSYAVALSCQCALCRRSTTDCGGPKDHPLTCDDPRFQDSSSSKAPPPSLPSPSRLPGPSDTPILPQ
biological activities in vitro or in vivo in the experimental systems described [1]: no activity
inhibition of growth / induction of apoptosis of neoplastic cells (human tumor cells): no inhibition of growth or induction of apoptosis
effect on xenotransplanted tumor (qualitative) [2]: no effect
inhibition of HIV replication (qualitative) (HIV-1): No inhibition
inhibition of HIV replication (qualitative) (HIV-1; listed as rβ-hCG): no effect
HIV-1 viral expression in tissues (HIV-1 gene expression): high expression
mice dead by day 10 (HIV-1 gene expression): 10 of 10
hematopoietic effects in vivo and in vitro [3]: None
effect on colony number (qualitative) ([3]; equimolar or higher concentrations): no significant effect above background
effect on survival (qualitative) [4]: no effect
binding to the hCG receptor (hCG receptor): neither β-hCG or any of its degradation products significantly bind
doses reducing HIV production in monocytes (HIV): ≤ 10 µg/mL

Source: patent US9175077B2, “Nucleic acids encoding biologically active polypeptides derived from a novel early stage pregnancy factor designated maternin (MA)” (NOBEL BIOSCIENCES LLC, priority 1999, dated 2015)
